{
  "source": "the Human Domainome abundance scans (Beltran et al. 2025)",
  "parents": {"B1": {"name": "Chromodomain-helicase-DNA-binding protein 5, residues 338 to 390; numbered along this chain, Q8TDI0 (parent)", "chain": "YETDHQDYCEVCQQGGEIILCDTCPRAYHLVCLDPELEKAPEGKWSCPHCEKE"}},
  "note": "± gives the uncertainty stated by the source.",
  "data": [
    {"variants_of": "B1", "test": "abundance fitness (aPCA) (normalised: wild type 0, dead -1); higher = more abundant; growth selection in yeast, the domain comes from the species named", "conditions": "Homo sapiens", "values": [
      {"variant": "Q6H", "abundance fitness": "-0.286 ± 0.18"},
      {"variant": "Q6R", "abundance fitness": "-0.183 ± 0.14"},
      {"variant": "Q6G", "abundance fitness": "-0.313 ± 0.12"},
      {"variant": "Q6V", "abundance fitness": "-0.199 ± 0.12"},
      {"variant": "Q6W", "abundance fitness": "-0.421 ± 0.12"},
      {"variant": "Q6Y", "abundance fitness": "-0.422 ± 0.2"},
      {"variant": "Q6S", "abundance fitness": "-0.047 ± 0.12"},
      {"variant": "Q6F", "abundance fitness": "-0.234 ± 0.13"},
      {"variant": "Q6E", "abundance fitness": "-0.186 ± 0.22"},
      {"variant": "Q6A", "abundance fitness": "0.193 ± 0.29"},
      {"variant": "Q6P", "abundance fitness": "0.25 ± 0.21"},
      {"variant": "Q6C", "abundance fitness": "-0.153 ± 0.13"},
      {"variant": "Q6D", "abundance fitness": "-0.199 ± 0.23"},
      {"variant": "Q6L", "abundance fitness": "-0.286 ± 0.11"},
      {"variant": "Y1S", "abundance fitness": "-0.481 ± 0.38"},
      {"variant": "Y1C", "abundance fitness": "0.245 ± 0.22"},
      {"variant": "Y1K", "abundance fitness": "0.125 ± 0.48"},
      {"variant": "Y1D", "abundance fitness": "-0.839 ± 0.33"},
      {"variant": "Y1F", "abundance fitness": "-0.041 ± 0.22"},
      {"variant": "Y1N", "abundance fitness": "-0.336 ± 0.39"},
      {"variant": "Y1R", "abundance fitness": "0.063 ± 0.47"},
      {"variant": "Y1E", "abundance fitness": "0.321 ± 0.3"},
      {"variant": "Y1W", "abundance fitness": "0.122 ± 0.23"},
      {"variant": "Y1G", "abundance fitness": "0.239 ± 0.27"},
      {"variant": "Y1V", "abundance fitness": "0.159 ± 0.36"},
      {"variant": "E2P", "abundance fitness": "-0.175 ± 0.22"},
      {"variant": "E2G", "abundance fitness": "0.072 ± 0.1"},
      {"variant": "E2A", "abundance fitness": "-0.071 ± 0.13"},
      {"variant": "E2V", "abundance fitness": "-0.484 ± 0.12"},
      {"variant": "E2M", "abundance fitness": "0.789 ± 0.31"},
      {"variant": "E2T", "abundance fitness": "0.488 ± 0.21"},
      {"variant": "E2S", "abundance fitness": "0.451 ± 0.15"},
      {"variant": "E2H", "abundance fitness": "0.022 ± 0.36"},
      {"variant": "E2L", "abundance fitness": "0.287 ± 0.16"},
      {"variant": "E2K", "abundance fitness": "0.529 ± 0.2"},
      {"variant": "E2N", "abundance fitness": "0.405 ± 0.28"},
      {"variant": "E2R", "abundance fitness": "0.267 ± 0.12"},
      {"variant": "E2F", "abundance fitness": "0.018 ± 0.26"},
      {"variant": "E2W", "abundance fitness": "-0.092 ± 0.22"},
      {"variant": "E2I", "abundance fitness": "0.814 ± 0.25"},
      {"variant": "E2C", "abundance fitness": "0.423 ± 0.28"},
      {"variant": "H5K", "abundance fitness": "0.021 ± 0.14"},
      {"variant": "H5A", "abundance fitness": "0.488 ± 0.12"},
      {"variant": "H5E", "abundance fitness": "0.024 ± 0.13"},
      {"variant": "H5T", "abundance fitness": "0.116 ± 0.12"},
      {"variant": "H5G", "abundance fitness": "0.185 ± 0.084"},
      {"variant": "H5M", "abundance fitness": "0.497 ± 0.12"},
      {"variant": "H5D", "abundance fitness": "-0.81 ± 0.22"},
      {"variant": "H5Q", "abundance fitness": "-0.046 ± 0.16"},
      {"variant": "H5F", "abundance fitness": "-0.144 ± 0.3"},
      {"variant": "H5N", "abundance fitness": "-0.072 ± 0.17"},
      {"variant": "H5W", "abundance fitness": "-0.038 ± 0.1"},
      {"variant": "H5C", "abundance fitness": "0.394 ± 0.21"},
      {"variant": "H5P", "abundance fitness": "0.124 ± 0.13"},
      {"variant": "H5R", "abundance fitness": "0.192 ± 0.089"},
      {"variant": "H5I", "abundance fitness": "0.079 ± 0.17"},
      {"variant": "H5S", "abundance fitness": "0.293 ± 0.1"},
      {"variant": "H5V", "abundance fitness": "0.464 ± 0.088"},
      {"variant": "H5L", "abundance fitness": "0.375 ± 0.11"},
      {"variant": "Y8Q", "abundance fitness": "0.437 ± 0.15"},
      {"variant": "Y8W", "abundance fitness": "-0.111 ± 0.14"},
      {"variant": "Y8E", "abundance fitness": "0.306 ± 0.12"},
      {"variant": "Y8K", "abundance fitness": "-0.067 ± 0.13"},
      {"variant": "Y8M", "abundance fitness": "0.102 ± 0.13"},
      {"variant": "Y8C", "abundance fitness": "-0.337 ± 0.23"},
      {"variant": "Y8A", "abundance fitness": "0.142 ± 0.089"},
      {"variant": "Y8V", "abundance fitness": "0.054 ± 0.1"},
      {"variant": "Y8I", "abundance fitness": "0.241 ± 0.16"},
      {"variant": "Y8N", "abundance fitness": "0.227 ± 0.18"},
      {"variant": "Y8D", "abundance fitness": "-0.199 ± 0.25"},
      {"variant": "Y8F", "abundance fitness": "-0.204 ± 0.25"},
      {"variant": "Y8H", "abundance fitness": "0.349 ± 0.17"},
      {"variant": "Y8S", "abundance fitness": "0.014 ± 0.11"},
      {"variant": "Y8L", "abundance fitness": "0.06 ± 0.1"},
      {"variant": "Y8P", "abundance fitness": "0.33 ± 0.13"},
      {"variant": "Y8T", "abundance fitness": "-0.088 ± 0.14"},
      {"variant": "Y8R", "abundance fitness": "0.211 ± 0.1"},
      {"variant": "Y8G", "abundance fitness": "0.078 ± 0.11"},
      {"variant": "T3F", "abundance fitness": "0.275 ± 0.19"},
      {"variant": "T3G", "abundance fitness": "0.342 ± 0.091"},
      {"variant": "T3K", "abundance fitness": "0.264 ± 0.16"},
      {"variant": "T3N", "abundance fitness": "-0.37 ± 0.23"},
      {"variant": "T3E", "abundance fitness": "0.268 ± 0.18"},
      {"variant": "T3W", "abundance fitness": "0.236 ± 0.12"},
      {"variant": "T3R", "abundance fitness": "0.119 ± 0.094"},
      {"variant": "T3S", "abundance fitness": "0.077 ± 0.12"},
      {"variant": "T3Q", "abundance fitness": "0.05 ± 0.17"},
      {"variant": "T3H", "abundance fitness": "-0.407 ± 0.29"},
      {"variant": "T3M", "abundance fitness": "0.567 ± 0.16"},
      {"variant": "T3I", "abundance fitness": "0.465 ± 0.22"},
      {"variant": "T3V", "abundance fitness": "0.027 ± 0.12"},
      {"variant": "T3A", "abundance fitness": "0.098 ± 0.11"},
      {"variant": "T3C", "abundance fitness": "-0.267 ± 0.18"},
      {"variant": "T3D", "abundance fitness": "0.023 ± 0.23"},
      {"variant": "T3Y", "abundance fitness": "0.171 ± 0.19"},
      {"variant": "D4G", "abundance fitness": "0.001 ± 0.083"},
      {"variant": "D4M", "abundance fitness": "0.627 ± 0.13"},
      {"variant": "D4P", "abundance fitness": "-0.049 ± 0.14"},
      {"variant": "D4A", "abundance fitness": "0.244 ± 0.099"},
      {"variant": "D4C", "abundance fitness": "0.128 ± 0.14"},
      {"variant": "D4W", "abundance fitness": "-0.014 ± 0.11"},
      {"variant": "D4K", "abundance fitness": "0.073 ± 0.18"},
      {"variant": "D4R", "abundance fitness": "0.054 ± 0.09"},
      {"variant": "D4Q", "abundance fitness": "0.368 ± 0.18"},
      {"variant": "D4I", "abundance fitness": "0.03 ± 0.15"},
      {"variant": "D4V", "abundance fitness": "0.117 ± 0.089"},
      {"variant": "D4H", "abundance fitness": "-0.056 ± 0.16"},
      {"variant": "D4T", "abundance fitness": "-0.008 ± 0.12"},
      {"variant": "D4F", "abundance fitness": "0.04 ± 0.16"}
    ]}
  ]
}
